The values that follow come from the supplement of paper PMC10567573.

± gives the standard deviation.

A short description of this data set: protein stability index of a GFP-peptide fusion (GPS, HEK-293T) (PSI 1-6); higher = more stable. The note with it: c terminus: a fixed tail appended.
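Also: 24-mer peptide tiles fused after GFP, lentivirally expressed, FACS-sorted into six equal bins by GFP/DsRed ratio, decoded by Illumina sequencing, PSI is the read-weighted mean bin number.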

As for MYDEKAHEWKSLAPMDAPRYQHGI [KLHL13], the protein stability index amounted to 3.15 ± 0.21 (treatment: DMSO) and 3.4 ± 0.17 (treatment: MLN4924 1 uM, 8 h).

In the case of NCGKSFSRLTALTLHQRTHTEERP [ZNF449], the protein stability index (treatment: DMSO) worked out at 3.38 ± 0.27 and the protein stability index (treatment: MLN4924 1 uM, 8 h) was determined as 3.36 ± 0.26.

Take NDFSYLHTNCFELSIYVGCDKYPH [CPXM2]: the protein stability index was found to be 2.5 ± 0.18 (treatment: DMSO) and 2.25 ± 0.37 (treatment: MLN4924 1 uM, 8 h).

As to NENDFYDGAWCAGRNDLQQWIEVD [CPXM2], the protein stability index is, setting by setting: (treatment: DMSO) 4.22 ± 0.46; (treatment: MLN4924 1 uM, 8 h) 4.05 ± 0.3.

For NENMAAKKKSVAMHTNYLSACSFT [GNB5], the protein stability index came to 3.09 ± 0.21 (treatment: DMSO) and 3.25 ± 0.3 (treatment: MLN4924 1 uM, 8 h).

The sequence NGASWHTVAGSLNDFSYLHTNCFE [CPXM2] had a protein stability index (treatment: DMSO) of 2.68 ± 0.47 and a protein stability index (treatment: MLN4924 1 uM, 8 h) of 2.83 ± 0.23.

As for NGEYVPWLYCYDPVMDVWARKQDM [KLHL14], the protein stability index by setting is: (treatment: DMSO) 2.49 ± 0.09; (treatment: MLN4924 1 uM, 8 h) 2.57 ± 0.21.

Take NHFDMHRVGKWHQDFPVKKRKKLS [ZNF75A]: the protein stability index runs as follows: (treatment: DMSO) 3.56 ± 0.24; (treatment: MLN4924 1 uM, 8 h) 3.92 ± 0.076.

The sequence NHLPDPEIFRQRFRQFGYQDSPGP [ZNF24] came in with a protein stability index (treatment: DMSO) of 3.54 ± 0.29 and a protein stability index (treatment: MLN4924 1 uM, 8 h) of 3.48 ± 0.3.

For the sequence NISGHTNTNTLKVPECRLAEDLGN [SPOPL], the protein stability index runs as follows: (treatment: DMSO) 3.53 ± 0.26; (treatment: MLN4924 1 uM, 8 h) 3.7 ± 0.19.

With NIVNLLTTCSTPLLNSPPSFVCWS [AUP1], the protein stability index runs as follows: (treatment: DMSO) 3.2 ± 0.56; (treatment: MLN4924 1 uM, 8 h) 2.78 ± 0.47.

With NIWASQSVLSACDNLSDLVMVRWN [IQUB], the protein stability index came out at 2.14 ± 0.11 (treatment: DMSO) and 2.27 ± 0.46 (treatment: MLN4924 1 uM, 8 h).

For NKCSGMRFPLQEENSVTHHEVKCQ [KMT5A], the protein stability index is, setting by setting: (treatment: DMSO) 4.79 ± 0.42; (treatment: MLN4924 1 uM, 8 h) 4.61 ± 0.37.

As for NKGTRFSEAWEYFHLAPARAGHHP [ZBED2], the protein stability index runs as follows: (treatment: DMSO) 2.64 ± 0.16; (treatment: MLN4924 1 uM, 8 h) 2.96 ± 0.22.

With NKNEVFYQCPDQMARNPAAIDMFI [FBXO3], the protein stability index was found to be 2.42 ± 0.17 (treatment: DMSO) and 2.65 ± 0.48 (treatment: MLN4924 1 uM, 8 h).

With NLIYRSTRHLKRLALMIQSSGNTV [TMEM192], the protein stability index was determined as 2.93 ± 0.43 (treatment: DMSO) and 2.67 ± 0.42 (treatment: MLN4924 1 uM, 8 h).

NLLFKPPVESHIQKNKKILKSAKD [KMT2E] came in with a protein stability index (treatment: DMSO) of 3.61 ± 0.099 and a protein stability index (treatment: MLN4924 1 uM, 8 h) of 3.6 ± 0.38.

As to NPTRQDESIQRIAVHLCNALVCQV [ZER1], the protein stability index is, setting by setting: (treatment: DMSO) 2.48 ± 0.74; (treatment: MLN4924 1 uM, 8 h) 2.27 ± 0.16.

As for NQKCQLRLLKTLETSRSHDLEAVV [ATP23], the protein stability index came to 3.14 ± 0.12 (treatment: DMSO) and 3.3 ± 0.2 (treatment: MLN4924 1 uM, 8 h).

Turning to NQLTHTDLKPENILFVNSEFETLY [CLK3], the protein stability index by setting is: (treatment: DMSO) 3.29 ± 0.35; (treatment: MLN4924 1 uM, 8 h) 3.27 ± 0.18.

As to NRFVQLSGRPHLPGKKKIRWDPVR [KLHDC10], the protein stability index (treatment: DMSO) stood at 2.5 ± 0.6 and the protein stability index (treatment: MLN4924 1 uM, 8 h) came to 2.49 ± 0.52.

Regarding NRVSWWGSTLAMLQRLKEQQFVIA [ZBED1], the protein stability index is 2.41 ± 0.38 (treatment: DMSO) and 2.48 ± 1 (treatment: MLN4924 1 uM, 8 h).

For NSGLKPKDNEFTSKPWHWPINYQG [POMT2], the protein stability index worked out at 2.99 ± 0.18 (treatment: DMSO) and 3.24 ± 0.27 (treatment: MLN4924 1 uM, 8 h).

Turning to NSHQDFWTVWSGNRASLYSFPEPE [PRAME], the protein stability index stood at 2.49 ± 0.19 (treatment: DMSO) and 2.67 ± 0.38 (treatment: MLN4924 1 uM, 8 h).

Consider NSLITAPGEFSDASMSPDATKPSH [SMAD6], for which the protein stability index reads like this: (treatment: DMSO) 5.07 ± 0.21; (treatment: MLN4924 1 uM, 8 h) 5.23 ± 0.18.

NSTPLRAACFDGRLDIVKYLVENN [FEM1B] displayed a protein stability index (treatment: DMSO) of 2.84 ± 0.19 and a protein stability index (treatment: MLN4924 1 uM, 8 h) of 3.01 ± 0.21.

Regarding NTEDWRPRPGTGQSRSFRILAHLT [PDLIM7], the protein stability index reads like this: (treatment: DMSO) 2.81 ± 0.33; (treatment: MLN4924 1 uM, 8 h) 2.9 ± 0.22.

The sequence NTKEKIAFFASHQCSNRIGSMKIK [FBXO34] came in with a protein stability index (treatment: DMSO) of 2.79 ± 0.19 and a protein stability index (treatment: MLN4924 1 uM, 8 h) of 2.72 ± 0.46.

For NVADTLVLADLHSAEQLKAQAIDF [SPOPL], the protein stability index turned out to be 3.46 ± 0.16 (treatment: DMSO) and 3.77 ± 0.57 (treatment: MLN4924 1 uM, 8 h).

Turning to NVKMIVLICVIVFIIILFIVLFAT [VAMP8], the protein stability index by setting is: (treatment: DMSO) 2.27 ± 0.3; (treatment: MLN4924 1 uM, 8 h) 2.37 ± 0.27.

As to NVSLGPGVVVEDGVCIRRCTVLRD [GMPPB], the protein stability index stood at 3.54 ± 0.27 (treatment: DMSO) and 3.44 ± 0.29 (treatment: MLN4924 1 uM, 8 h).

With NVTRHQAECALNERGVEGDFLIRD [NCK2], the protein stability index by setting is: (treatment: DMSO) 4.35 ± 0.27; (treatment: MLN4924 1 uM, 8 h) 4.5 ± 0.31.

For NWRYATGGWETVFRPVSETCTDRS [FUT8], the protein stability index runs as follows: (treatment: DMSO) 2.21 ± 0.42; (treatment: MLN4924 1 uM, 8 h) 3 ± 0.67.

For the sequence PAFPFIYTPTAEDSAQMQNGGPST [ANKRD40], the protein stability index reads like this: (treatment: DMSO) 4.55 ± 0.12; (treatment: MLN4924 1 uM, 8 h) 4.5 ± 0.23.

Consider PALLFPATRGVPAKRLLDADDAAA [TRIB1], for which the protein stability index is, setting by setting: (treatment: DMSO) 4.74 ± 0.23; (treatment: MLN4924 1 uM, 8 h) 4.67 ± 0.27.

In turn, PAPTTTTATREEASTSLPTKPTQG [CLPTM1] displayed a protein stability index (treatment: DMSO) of 5.54 ± 0.19 and a protein stability index (treatment: MLN4924 1 uM, 8 h) of 5.57 ± 0.14.
